Source: patent publication US7670806B2, “ADP-ribosyl acceptor hydrolase 3 (ARH3) polypeptides and methods of use” (The United States of America as represented by the …, priority 2005, dated 2010)

Experiment: Hydrolysis of O-acetyl-[14C]ADP-ribose by ARH proteins / PARG (RP-HPLC)
Type: biochemical
Conditions: 1.5 pmol wild type or mutant human ARH3 or 20 mU PARG, 2 h at 30° C.; mouse ARH1, 2, 3
Experimental: FIG. 13A is a graph illustrating the results from incubation of 1.5 pmol of mouse ARH3 with or without 5 mM DTT and/or 10 mM MgCl2 as described in FIG. 11B with incubation for 1 h at 30° C. FIG. 13B is a graph illustrating the results from incubation of 1.5 pmol of wild type or mutant human (D77-78) ARH3 or 20 mU of PARG for 2 h at 30° C. *D77,78, assays incubated with 15 pmol of mutant human ARH3 (D77, D78).
FIG. 14A is a graph of the results from incubation with the indicated amount of mouse ARH1, 2, or 3 for 2 h at 30° C. FIG. 14B is a graph of the results from incubation with 230 pmol of mouse ARH1 at 30° C. for the indicated time.
Mouse ARH3 (2 pmol) and 2.5 μM O-acetyl-[^14C]ADP-ribose (5,000 cpm) in 200 μl of buffer containing 50 mM potassium phosphate (pH 7.0), 10 mM MgCl2 and 5 mM DTT were incubated for 2 h at 30° C., before separation of substrate and products using RP-HPLC as described below.
Hydrolysis of O-acetyl-[^14C]ADP-ribose catalyzed by ARH3. Assays containing the indicated concentration of O-acetyl-[^14C]-ADP-ribose (0.1 to 2 nmol, 1,000 to 20,000 cpm) and 1.5 pmol of ARH3 in 200 μl of buffer (50 mM KPO4 (pH 7.0), 10 mM MgCl2, 5 mM DTT) were incubated at 30° C. for 20 min. Substrate and products were separated using RP-HPLC. Amounts of product were corrected for ADP-ribose produced in the absence of ARH3 before calculation of hydrolysis rates.
Because O-acetyl-ADP-ribose was known to be hydrolyzed at alkaline pH Tanny and Moazed (2001), Proc Natl Acad Sci USA. 98(2):415-20, Epub Dec. 26, 2000), it was generated at pH 7.0 in the presence of [^14C-adenine] β-NAD, Sir2, and acetylated histone H3 peptide (FIG. 11A), and the products of Sir2 and ARH3 were analyzed using reverse-phase HPLC at the same pH (FIGS. 11A,B). The products of the ARH3-catalyzed reaction were also analyzed by high resolution-polyacrylamide gel electrophoresis (FIG. 11C). O-acetyl-[^14C]ADP-ribose hydrolase activity was time and ARH3 dependent (FIG. 12) and essentially completely dependent on Mg^2+ (FIG. 13A).
O-acetyl-ADP-ribose hydrolysis by ARH1 was time and ARH1 dependent (FIG. 14b).

B1: ARH3 (D77N/D78N): human ARH3 mutant with dual amino acid replacement D77N/D78N (protein)
chain: MAAAAMAAAAGGGAGAARSLSRFRGCLAGALLGDCVGSFYEAHDTVDLTSVLRHVQSLEPDPGTPGSERTEALYYTNNTAMARALVQSLLAKEAFDEVDMAHRFAQEYKKDPDRGYGAGVVTVFKKLLNPKCRDVFEPARAQFNGKGSYGNGGAMRVAGISLAYSSVQDVQKFARLSAQLTHASSLGYNGAILQALAVHLALQGESSSEHFLKQLLGHMEDLEGDAQSVLDARELGMEERPYSSRLKKIGELLDQASVTREEVVSELGNGIAAFESVPTAIYCFLRCMEPDPEIPSAFNSLQRTLIYSISLGGDTDTIATMAGAIAGAYYGMDQVPESWQQSCEGYEETDILAQSLHRVFQKS
For B1, which “O-acetyl-ADP-ribose hydrolysis (in words)” value is on record?
The value was “apparently inactive”.
